{
  "source": "patent US20110008436A1",
  "about": "(published 2011)",
  "key": {"[1]": {"target": "T1, Substantially sericin-depleted silk fibroin from Bombyx mori (dissolved in 9.3 M LiBr, dialysed, then gelled … (Bombyx mori, UniProt P05790 22-5263; P21828 17-262, limits assumed)", "T1 construct": "also called silk molecule; depolymerized silk fibroin", "test": "Inferred by the filing from the HPLC ratios of the precipitates", "method": "(§1) The amount of 23RGD bound to silk precipitates was quantified by analyzing lyophilized samples. The 23RGD was removed by incubating the samples for 4 hours in a dissolving buffer, then centrifuging on an Eppendorf 5415C (Eppendorf North America Inc., Westbury, N.Y.) at 16,000 g (RCF) for 30 minutes and the supernatant collected. This supernatant was then centrifuged in identical fashion and the final supernatant collected for HPLC analysis using a PerkinElmer Series 200 (PerkinElmer, Waltham, Mass.). The 23RGD peak areas from each curve were compared against a standard curve. 1-Way ANOVA was used to test for significant differences caused by changing silk concentration, 23RGD concentration, and accelerant volume. A Student's t-test was used to test the significance of differences resulting from altered ethanol concentrations."}, "[2]": {"target": "T1, Substantially sericin-depleted silk …", "test": "HPLC of 23RGD extracted from lyophilised silk precipitate; RHI formulation (high 23RGD, calculated ratio 10.0)", "method": "as §1"}, "[3]": {"target": "T1, Substantially sericin-depleted silk …", "test": "HPLC of 23RGD extracted from lyophilised silk precipitate; formulation labelled 0.6S 3R 10:1 (2.45 mg/mL 23RGD in 90% ethanol)", "method": "as §1"}, "[4]": {"target": "T1, Substantially sericin-depleted silk …", "test": "HPLC of 23RGD extracted from lyophilised silk precipitate; AVLO formulation (low accelerant volume, calculated ratio 2.5)", "method": "as §1"}, "[5]": {"target": "T1, Substantially sericin-depleted silk …", "test": "HPLC of 23RGD extracted from lyophilised silk precipitate; AVHI formulation (high accelerant volume, calculated ratio 10.0)", "method": "as §1"}, "[6]": {"target": "T1, Substantially sericin-depleted silk …", "test": "HPLC of 23RGD extracted from lyophilised silk precipitate; SCVLO formulation (very low silk concentration, calculated ratio 10.0)", "method": "as §1"}, "[7]": {"target": "T1, Substantially sericin-depleted silk …", "test": "HPLC of 23RGD extracted from silk precipitate, against the calculated ratio", "method": "as §1"}, "[8]": {"target": "T1, Substantially sericin-depleted silk …", "test": "HPLC of 23RGD extracted from lyophilised silk precipitate; BASE formulation (calculated ratio 5.0)", "method": "as §1"}, "[9]": {"target": "T1, Substantially sericin-depleted silk …", "test": "HPLC of 23RGD extracted from lyophilised silk precipitate; SCLO formulation (low silk concentration, calculated ratio 6.7)", "method": "as §1"}, "[10]": {"target": "T1, Substantially sericin-depleted silk …", "test": "HPLC of 23RGD extracted from lyophilised silk precipitate; group called RLO in this sentence (0.49 mg/mL 23RGD per paragraph 318, which is RVLO in Table 10)", "method": "as §1"}, "[11]": {"target": "T1, Substantially sericin-depleted silk …", "test": "HPLC of 23RGD extracted with dissolving buffer from the rinsed 23RGD-enhanced silk gel, against a 23RGD standard curve", "description": "23RGD-infused gels were studied to quantify the amount of 23RGD bound to the silk-hydrogel device as well as the quantity of free 23RGD which might be rinsed free of the device under relevant conditions. Briefly, samples of 23RGD-infused gel were cast and rinsed according to the methods above, with samples of rinse buffer being collected from each rinse for subsequent analysis by HPLC. Additionally, subsequent to the last rinse, the gel samples were mechanically pulverized by means of a stainless steel stirring rod and the adsorbed 23RGD removed by incubation for 4 hours in a dissolving buffer. This mixture of gel and solvent was then centrifuged on an Eppendorf 5415C at 16,000 g RCF for 30 minutes. The supernatant was collected and centrifuged another 30 minutes at 16,000 g RCF after which time the supernatant was collected in a sample vial for HPLC analysis. Samples of rinse buffer from the first and last rinse were centrifuged in the same fashion after being diluted with the same solvent the gel was extracted with in a volumetric ratio of 1 part rinse buffer to 4 parts solvent. To ensure 23RGD-hydrogel device rinse-exposed surface area was not a limiting factor, the same rinse and extraction process was performed upon devices pulverized after gelation and before rinsing."}, "[12]": {"target": "T1, Substantially sericin-depleted silk …", "test": "HPLC of 23RGD extracted from silk precipitate; ECLO formulation (80% ethanol accelerant), against the calculated ratio", "method": "as §1"}, "[13]": {"target": "T1, Substantially sericin-depleted silk …", "test": "HPLC of 23RGD extracted from lyophilised silk precipitate; group called RMED (1.47 mg/mL 23RGD per paragraph 318, which is RLO in Table 10)", "method": "as §1"}},
  "note": "Where no end group is shown, it is not given here.",
  "data": [
    {"binder": "GRGDIPASSKGGGGSRLLLLLLR-NH2 (also called 23RDG)", "note": "[23RGD peptide (amphiphilic peptide GRGDIPASSKG4SRL6R-NH2)]", "values": [
      {"measurement": "apparent saturation, 23RGD:silk ratio", "setting": "[1]", "result": "~10", "unit": "mol 23RGD per mol silk"},
      {"measurement": "23RGD:silk molar ratio bound", "setting": "[2]", "result": 10.7, "unit": "mol 23RGD per mol silk"},
      {"measurement": "23RGD:silk molar ratio bound", "setting": "[3]", "result": "~10", "unit": "mol 23RGD per mol silk"},
      {"measurement": "23RGD:silk molar ratio bound", "setting": "[4]", "result": 5.2, "unit": "mol 23RGD per mol silk"},
      {"measurement": "23RGD:silk molar ratio bound", "setting": "[5]", "result": 10.5, "unit": "mol 23RGD per mol silk"},
      {"measurement": "23RGD:silk molar ratio bound", "setting": "[6]", "result": 11, "unit": "mol 23RGD per mol silk"},
      {"measurement": "fold of the expected (calculated) bound 23RGD", "setting": "[7]", "result": "~2", "unit": "fold"},
      {"measurement": "23RGD:silk molar ratio bound", "setting": "[8]", "result": 8.7, "unit": "mol 23RGD per mol silk"},
      {"measurement": "23RGD:silk molar ratio bound", "setting": "[9]", "result": 9.9, "unit": "mol 23RGD per mol silk"},
      {"measurement": "23RGD:silk molar ratio bound", "setting": "[10]", "result": 1.1, "unit": "mol 23RGD per mol silk"},
      {"measurement": "23RGD:silk molar ratio bound", "setting": "[11]", "result": 3.35, "unit": "mol 23RGD per mol silk"},
      {"measurement": "fold of the expected (calculated) bound 23RGD", "setting": "[12]", "result": "~1.5", "unit": "fold"},
      {"measurement": "23RGD:silk molar ratio bound", "setting": "[13]", "result": 6.95, "unit": "mol 23RGD per mol silk"}
    ]}
  ]
}
